Target: recombinant LRPPRC protein purified from 293F cells (human, UniProt P42704 60-1394)
Assay: ELISA
Conditions: both partners purified

B1: Aedes aegypti venom allergen-1 (AaVA-1), recombinant, from Drosophila S2 cells (natural protein)
chain: NYCDQSLCRRGPHVACNAPTQFGSACGQEPKFVKMDARMKNLLLKKHNELRAEIACGKHGFPQAARMPTLVWDDELAHIASFNARKCIFAHDKCRNTREFKFAGQNLAITAFAGYNFQAADRAENFTQEWFNEHKDCPKSYVDSYPMSHSGPQIGHFTQMVNDRAWKMGCSMVHYKNGRVIKYYLVCNYSMTNMIEEPIYTRGSAGSKCQTGQNPQYRGLCSPREKVRSESYRG
notes: also called AAEL000793; purified AaVA-1
  binding result: binds

— article PMC6959235, “A mosquito salivary protein promotes flavivirus transmission by activation of autophagy” (Nature Communications, 2020)
